# IntAct's records for PubMed 23929946
# B1: Protein BRASSINOSTEROID … 1 (Arabidopsis thaliana (Mouse-ear cress)), O22476 (parent)
# chain: MKTFSSFFLSVTTLFFFSFFSLSFQASPSQSLYREIHQLISFKDVLPDKNLLPDWSSNKNPCTFDGVTCRDDKVTSIDLSSKPLNVGFSAVSSSLLSLTGLESLFLSNSHINGSVSGFKCSASLTSLDLSRNSLSGPVTTLTSLGSCSGLKFLNVSSNTLDFPGKVSGGLKLNSLEVLDLSANSISGANVVGWVLSDGCGELKHLAISGNKISGDVDVSRCVNLEFLDVSSNNFSTGIPFLGDCSALQHLDISGNKLSGDFSRAISTCTELKLLNISSNQFVGPIPPLPLKSLQYLSLAENKFTGEIPDFLSGACDTLTGLDLSGNHFYGAVPPFFGSCSLLESLALSSNNFSGELPMDTLLKMRGLKVLDLSFNEFSGELPESLTNLSASLLTLDLSSNNFSGPILPNLCQNPKNTLQELYLQNNGFTGKIPPTLSNCSELVSLHLSFNYLSGTIPSSLGSLSKLRDLKLWLNMLEGEIPQELMYVKTLETLILDFNDLTGEIPSGLSNCTNLNWISLSNNRLTGEIPKWIGRLENLAILKLSNNSFSGNIPAELGDCRSLIWLDLNTNLFNGTIPAAMFKQSGKIAANFIAGKRYVYIKNDGMKKECHGAGNLLEFQGIRSEQLNRLSTRNPCNITSRVYGGHTSPTFDNNGSMMFLDMSYNMLSGYIPKEIGSMPYLFILNLGHNDISGSIPDEVGDLRGLNILDLSSNKLDGRIPQAMSALTMLTEIDLSNNNLSGPIPEMGQFETFPPAKFLNNPGLCGYPLPRCDPSNADGYAHHQRSHGRRPASLAGSVAMGLLFSFVCIFGLILVGREMRKRRRKKEAELEMYAEGHGNSGDRTANNTNWKLTGVKEALSINLAAFEKPLRKLTFADLLQATNGFHNDSLIGSGGFGDVYKAILKDGSAVAIKKLIHVSGQGDREFMAEMETIGKIKHRNLVPLLGYCKVGDERLLVYEFMKYGSLEDVLHDPKKAGVKLNWSTRRKIAIGSARGLAFLHHNCSPHIIHRDMKSSNVLLDENLEARVSDFGMARLMSAMDTHLSVSTLAGTPGYVPPEYYQSFRCSTKGDVYSYGVVLLELLTGKRPTDSPDFGDNNLVGWVKQHAKLRISDVFDPELMKEDPALEIELLQHLKVAVACLDDRAWRRPTMVQVMAMFKEIQAGSGIDSQSTIRSIEDGGFSTIEMVDMSIKEVPEGKL
# partner: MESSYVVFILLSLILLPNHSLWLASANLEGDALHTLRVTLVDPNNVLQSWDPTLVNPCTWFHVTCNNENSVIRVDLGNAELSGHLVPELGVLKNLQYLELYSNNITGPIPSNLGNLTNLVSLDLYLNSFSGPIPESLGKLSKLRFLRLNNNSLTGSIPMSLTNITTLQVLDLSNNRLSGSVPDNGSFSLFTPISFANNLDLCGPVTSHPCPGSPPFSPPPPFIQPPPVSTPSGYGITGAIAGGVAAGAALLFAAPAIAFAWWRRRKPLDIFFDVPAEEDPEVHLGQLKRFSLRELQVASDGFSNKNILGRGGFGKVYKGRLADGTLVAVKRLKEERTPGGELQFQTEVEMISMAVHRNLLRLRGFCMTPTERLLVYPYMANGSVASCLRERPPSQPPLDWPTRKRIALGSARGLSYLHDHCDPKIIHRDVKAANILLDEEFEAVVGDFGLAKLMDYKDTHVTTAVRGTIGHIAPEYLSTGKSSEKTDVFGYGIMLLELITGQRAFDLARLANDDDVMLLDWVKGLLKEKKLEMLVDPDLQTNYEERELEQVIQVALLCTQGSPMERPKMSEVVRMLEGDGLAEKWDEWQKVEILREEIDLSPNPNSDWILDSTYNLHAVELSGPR
# Variants of: B1
# Details: with serk1_arath SERK1, Q94AG2
row,effect of a mutation on the interaction,Variant
1,disrupting interaction strength,T750I
